Assay results from publication PMC12956874.
Blank lines part the entries; values can stand above or below the substance they belong to.

How the values were obtained:
[1] = biological target: PEX19-His, full-length (T. brucei); assay: AlphaScreen or HTRF
[2] = biological target: PEX19-His 1 to 50 (T. brucei); assay: AlphaScreen or HTRF
[3] = biological target: PEX38_(65–134) (T. brucei); assay: ITC; titration of PEX38 with PEX19; technical triplicates
[4] = biological target: PEX19-His, full-length (T. brucei); assay: AlphaScreen or HTRF; AlphaScreen displacement assay: equimolar PEX19-His and GST-PEX3Δ1-44 (30 nM), increasing amounts of untagged PEX38
[5] = biological target: TbPEX38 (65-134) (T. brucei); assay: ITC; 40 µM TbPEX38 titrated with 440 µM TbPEX19; triplicates; 25°C; 20 mM Tris pH 7.5, 50 mM NaCl; one-site binding model; MicroCal PEAQ-ITC

other [1]: 30 fold
Substance: GST-PEX3Δ1-44 (domain or fragment)

other [2]: 10 fold
Substance: GST-PEX38, full-length (natural protein)

Kd [3]: 3 µM
Substance: PEX19_(1–50) with a C-terminal SGGY extension (domain or fragment)

IC50 [4]: 0.446 µM
Substance: PEX38_(65–134) (domain or fragment)

Kd [5]: 2.89 µM
Substance: TbPEX19 (1-50-SGGY) (domain or fragment)

IC50 [4]: 0.95 µM
Substance: untagged PEX38, full-length (natural protein)
